# Target: brain-derived neurotrophic factor
# Assay: native gel or EMSA
substance,measurement,value
"soluble, recombinant extracellular domain of tropomyosin receptor kinase B (from UniProt Q16620 32-430)",stoichiometry N (TrkB per BDNF dimer),1

# From publication PMC5958903
